# Test results as given in the supplement of paper PMC9112550, “Optimization of the antimicrobial peptide Bac7 by deep mutational scanning” (BMC Biology, 2022).
# Test system: Escherichia coli TOP10
# Assay: shrunken log2 fold change of peptide-encoding DNA abundance (4.5 h post-induction vs induction); higher = less antimicrobial activity (less host growth inhibition)
# Settings: time post-induction: 4.5 h; library: site-saturation at positions 5, 18, 19, 20
# 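Note: peptides expressed intracellularly from a pBAD plasmid library in pooled LB shake-flask culture, induced with 0.3% L-arabinose, DNA abundance read by NGS, three biological replicates, DESeq2 with apeglm shrinkage.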
sequence,measurement,value
RRIRLRPPRLPRPRPRPRMYPRP,shrunken log2 fold change,-0.166
RRIRYRPPRLPRPRPRPLREPRP,shrunken log2 fold change,0.483
RRIRLRPPRLPRPRPRPYLQPRP,shrunken log2 fold change,-0.0746
RRIRKRPPRLPRPRPRPNDMPRP,shrunken log2 fold change,0.194
RRIRQRPPRLPRPRPRPPVEPRP,shrunken log2 fold change,0.265
RRIRERPPRLPRPRPRPVVVPRP,shrunken log2 fold change,-0.112
RRIRERPPRLPRPRPRPKFEPRP,shrunken log2 fold change,-0.0495
RRIRKRPPRLPRPRPRPYRFPRP,shrunken log2 fold change,-0.244
RRIRQRPPRLPRPRPRPCNSPRP,shrunken log2 fold change,-0.0261
RRIRERPPRLPRPRPRPWDWPRP,shrunken log2 fold change,0.0223
RRIRQRPPRLPRPRPRPIKAPRP,shrunken log2 fold change,0.00249
RRIRNRPPRLPRPRPRPVCRPRP,shrunken log2 fold change,0.0204
RRIRYRPPRLPRPRPRPTPYPRP,shrunken log2 fold change,-0.847
RRIRNRPPRLPRPRPRPCWNPRP,shrunken log2 fold change,-0.429
RRIRGRPPRLPRPRPRPMEEPRP,shrunken log2 fold change,0.48
RRIRCRPPRLPRPRPRPMCKPRP,shrunken log2 fold change,-0.109
RRIRHRPPRLPRPRPRPIGIPRP,shrunken log2 fold change,0.0295
RRIRCRPPRLPRPRPRPSGCPRP,shrunken log2 fold change,-0.221
RRIRTRPPRLPRPRPRPSYVPRP,shrunken log2 fold change,-0.305
RRIRMRPPRLPRPRPRPNAWPRP,shrunken log2 fold change,0.774
RRIRYRPPRLPRPRPRPNQCPRP,shrunken log2 fold change,-0.352
RRIRYRPPRLPRPRPRPVQMPRP,shrunken log2 fold change,-0.0524
RRIRERPPRLPRPRPRPNQMPRP,shrunken log2 fold change,-0.0733
RRIRQRPPRLPRPRPRPHQTPRP,shrunken log2 fold change,-0.0333
RRIRWRPPRLPRPRPRPLHIPRP,shrunken log2 fold change,-0.465
RRIRDRPPRLPRPRPRPDWLPRP,shrunken log2 fold change,0.34
RRIRCRPPRLPRPRPRPPTVPRP,shrunken log2 fold change,0.202
RRIRRRPPRLPRPRPRPGIHPRP,shrunken log2 fold change,0.252
RRIRCRPPRLPRPRPRPDCIPRP,shrunken log2 fold change,-0.027
RRIRKRPPRLPRPRPRPFWWPRP,shrunken log2 fold change,0.592
RRIRHRPPRLPRPRPRPDRCPRP,shrunken log2 fold change,-0.205
RRIRARPPRLPRPRPRPVSFPRP,shrunken log2 fold change,0.368
RRIRWRPPRLPRPRPRPNNWPRP,shrunken log2 fold change,-0.0483
RRIRPRPPRLPRPRPRPAAVPRP,shrunken log2 fold change,0.41
RRIRNRPPRLPRPRPRPFLSPRP,shrunken log2 fold change,-0.246
RRIRRRPPRLPRPRPRPWFLPRP,shrunken log2 fold change,-0.19
RRIRWRPPRLPRPRPRPTTPPRP,shrunken log2 fold change,0.642
RRIRIRPPRLPRPRPRPGDNPRP,shrunken log2 fold change,-0.317
RRIRHRPPRLPRPRPRPKSGPRP,shrunken log2 fold change,-0.242
RRIRIRPPRLPRPRPRPSWNPRP,shrunken log2 fold change,-0.49
RRIRVRPPRLPRPRPRPTADPRP,shrunken log2 fold change,0.27
RRIRPRPPRLPRPRPRPVNSPRP,shrunken log2 fold change,-0.196
RRIRHRPPRLPRPRPRPEVSPRP,shrunken log2 fold change,-0.0122
RRIRWRPPRLPRPRPRPHNNPRP,shrunken log2 fold change,-0.749
RRIRTRPPRLPRPRPRPEGGPRP,shrunken log2 fold change,0.203
RRIRIRPPRLPRPRPRPRYKPRP,shrunken log2 fold change,-0.593
RRIRWRPPRLPRPRPRPAIEPRP,shrunken log2 fold change,-0.04
RRIRERPPRLPRPRPRPMHWPRP,shrunken log2 fold change,-0.0407
RRIRWRPPRLPRPRPRPAHDPRP,shrunken log2 fold change,0.0987
RRIRTRPPRLPRPRPRPGRRPRP,shrunken log2 fold change,0.244
RRIRFRPPRLPRPRPRPRHHPRP,shrunken log2 fold change,-0.116
RRIRKRPPRLPRPRPRPSCHPRP,shrunken log2 fold change,-0.132
RRIRLRPPRLPRPRPRPWWVPRP,shrunken log2 fold change,0.0559
RRIRTRPPRLPRPRPRPVAFPRP,shrunken log2 fold change,-0.225
RRIRGRPPRLPRPRPRPMTPPRP,shrunken log2 fold change,1.07
RRIRLRPPRLPRPRPRPPDNPRP,shrunken log2 fold change,0.0299
RRIRTRPPRLPRPRPRPTVRPRP,shrunken log2 fold change,2.09
RRIRTRPPRLPRPRPRPTDRPRP,shrunken log2 fold change,-0.212
RRIRDRPPRLPRPRPRPAEDPRP,shrunken log2 fold change,-0.017
RRIRHRPPRLPRPRPRPESWPRP,shrunken log2 fold change,-0.00647
RRIRMRPPRLPRPRPRPELMPRP,shrunken log2 fold change,3.86
RRIRHRPPRLPRPRPRPNSFPRP,shrunken log2 fold change,0.00867
RRIRTRPPRLPRPRPRPLSYPRP,shrunken log2 fold change,-0.155
RRIRGRPPRLPRPRPRPMCLPRP,shrunken log2 fold change,0.0563
RRIRARPPRLPRPRPRPSLCPRP,shrunken log2 fold change,0.276
RRIRKRPPRLPRPRPRPCSRPRP,shrunken log2 fold change,0.015
RRIRQRPPRLPRPRPRPYSWPRP,shrunken log2 fold change,0.0415
RRIRIRPPRLPRPRPRPFIDPRP,shrunken log2 fold change,-0.205
RRIRQRPPRLPRPRPRPKLCPRP,shrunken log2 fold change,0.0303
RRIRFRPPRLPRPRPRPGMYPRP,shrunken log2 fold change,-0.076
RRIRSRPPRLPRPRPRPQCHPRP,shrunken log2 fold change,-0.113
RRIRQRPPRLPRPRPRPQAKPRP,shrunken log2 fold change,0.0346
RRIRWRPPRLPRPRPRPGNNPRP,shrunken log2 fold change,0.1
RRIRGRPPRLPRPRPRPMYSPRP,shrunken log2 fold change,0.208
RRIRDRPPRLPRPRPRPINQPRP,shrunken log2 fold change,-0.389
RRIRYRPPRLPRPRPRPLCFPRP,shrunken log2 fold change,-0.727
RRIRKRPPRLPRPRPRPTTAPRP,shrunken log2 fold change,0.271
RRIRNRPPRLPRPRPRPKKDPRP,shrunken log2 fold change,0.0489
RRIRIRPPRLPRPRPRPAINPRP,shrunken log2 fold change,-0.606
RRIRGRPPRLPRPRPRPKHYPRP,shrunken log2 fold change,0.0538
RRIRYRPPRLPRPRPRPMRVPRP,shrunken log2 fold change,0.135
RRIRTRPPRLPRPRPRPNGWPRP,shrunken log2 fold change,0.215
RRIRNRPPRLPRPRPRPGIHPRP,shrunken log2 fold change,0.0285
RRIRSRPPRLPRPRPRPALYPRP,shrunken log2 fold change,-0.124
RRIRRRPPRLPRPRPRPARSPRP,shrunken log2 fold change,0.512
RRIRERPPRLPRPRPRPGERPRP,shrunken log2 fold change,0.104
RRIRFRPPRLPRPRPRPPQCPRP,shrunken log2 fold change,0.237
RRIRERPPRLPRPRPRPFRIPRP,shrunken log2 fold change,-0.367
RRIRHRPPRLPRPRPRPIFQPRP,shrunken log2 fold change,0.153
RRIRDRPPRLPRPRPRPNHIPRP,shrunken log2 fold change,-1
RRIRVRPPRLPRPRPRPKTQPRP,shrunken log2 fold change,0.0766
RRIRMRPPRLPRPRPRPSWKPRP,shrunken log2 fold change,-0.181
RRIRWRPPRLPRPRPRPRLIPRP,shrunken log2 fold change,0.55
RRIRFRPPRLPRPRPRPYVKPRP,shrunken log2 fold change,-0.787
RRIRQRPPRLPRPRPRPPYCPRP,shrunken log2 fold change,0.0161
RRIRPRPPRLPRPRPRPKYIPRP,shrunken log2 fold change,-0.433
RRIRTRPPRLPRPRPRPIASPRP,shrunken log2 fold change,-0.0997
RRIRPRPPRLPRPRPRPTRCPRP,shrunken log2 fold change,0.279
RRIRERPPRLPRPRPRPVECPRP,shrunken log2 fold change,-0.152
RRIRERPPRLPRPRPRPSSRPRP,shrunken log2 fold change,-0.107
RRIRKRPPRLPRPRPRPKVGPRP,shrunken log2 fold change,0.00386
RRIRARPPRLPRPRPRPDHLPRP,shrunken log2 fold change,-0.0183
RRIRERPPRLPRPRPRPEPIPRP,shrunken log2 fold change,-0.00736
RRIRNRPPRLPRPRPRPMKSPRP,shrunken log2 fold change,-0.106
RRIRRRPPRLPRPRPRPMWCPRP,shrunken log2 fold change,0.135
RRIRQRPPRLPRPRPRPRKTPRP,shrunken log2 fold change,0.00489
RRIRSRPPRLPRPRPRPEDWPRP,shrunken log2 fold change,0.802
RRIRGRPPRLPRPRPRPGHSPRP,shrunken log2 fold change,-0.0314
RRIRKRPPRLPRPRPRPDIKPRP,shrunken log2 fold change,0.137
RRIRLRPPRLPRPRPRPTGYPRP,shrunken log2 fold change,-0.206
RRIRNRPPRLPRPRPRPWGMPRP,shrunken log2 fold change,-0.214
RRIRWRPPRLPRPRPRPKRKPRP,shrunken log2 fold change,0.502
RRIRERPPRLPRPRPRPKAEPRP,shrunken log2 fold change,0.0519
RRIRARPPRLPRPRPRPEQIPRP,shrunken log2 fold change,0.419
RRIRNRPPRLPRPRPRPEKAPRP,shrunken log2 fold change,-0.0149
RRIRQRPPRLPRPRPRPDYIPRP,shrunken log2 fold change,-0.0798
RRIRKRPPRLPRPRPRPTIAPRP,shrunken log2 fold change,0.541
RRIRARPPRLPRPRPRPNFPPRP,shrunken log2 fold change,-0.0362
RRIRFRPPRLPRPRPRPVICPRP,shrunken log2 fold change,0.0508
RRIRDRPPRLPRPRPRPMWRPRP,shrunken log2 fold change,0.309
RRIRLRPPRLPRPRPRPYRAPRP,shrunken log2 fold change,-0.21
RRIRTRPPRLPRPRPRPYTGPRP,shrunken log2 fold change,-0.0567
RRIRIRPPRLPRPRPRPIKFPRP,shrunken log2 fold change,-0.933
RRIRKRPPRLPRPRPRPTSRPRP,shrunken log2 fold change,0.159
RRIRVRPPRLPRPRPRPMQMPRP,shrunken log2 fold change,-0.0841
